Data published in patent US20170129962A1 (Hoffmann-La Roche, published 2017).

What was measured:
human IL17 [1] = biological target: T1, human IL17 (human, UniProt Q16552 24-155); assay: SPR (Biacore), bispecific antibody captured by anti-human F(ab')2, human IL17 as analyte, 1:1 Langmuir, apparent KD
T1 construct: for that reason an apparent KD is reported; also called IL17-A
T1 sequence (looked up): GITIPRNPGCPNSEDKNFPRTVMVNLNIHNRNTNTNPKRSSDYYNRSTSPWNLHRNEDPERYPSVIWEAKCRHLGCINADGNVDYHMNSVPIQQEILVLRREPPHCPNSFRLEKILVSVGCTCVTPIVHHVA
Description: (§1) Around 6000 resonance units (RU) of the capturing system (15 μg/ml goat anti human F(ab′)2; Order Code: 28958325; GE Healthcare Bio-Sciences AB, Schweden) were coupled on a CMS chip at pH 5.0 by using an amine coupling kit supplied by the GE Healthcare. The sample and system buffer was PBS-T (10 mM phosphate buffered saline including 0.05% Tween 20) pH 7.4. The bispecific antibody was captured by injecting a 50 nM solution for 90 sec at a flow of 10 μl/min. Association was measured by injection human IL17 in various concentrations in solution for 3 min at a flow of 30 μl/min starting with 50 nM in 1:1 serial dilutions. The dissociation phase was monitored for up to 10 min and triggered by switching from the sample solution to running buffer. The surface was regenerated twice by 60 sec wash with a 10 mM glycine pH 2.1 solution at a flow rate of 30 μl/min. Bulk refractive index differences were corrected by subtracting the response obtained from a goat anti human F(ab′)2 surface. Blank injections are also subtracted (=double referencing). For calculation of apparent KD and other kinetic parameters, the Langmuir 1:1 model was used.
(§2) Binding of the multispecific antibodies to their respective target antigens, i.e. IL17 and TWEAK, was assessed by Biacore® as described in the general methods section.

human IL17 [2] = biological target: T1, human IL17; assay: SPR (Biacore), bispecific antibody captured by anti-human F(ab')2, human IL17 as analyte, 1:1 Langmuir
Description: as §1, §2

TWEAK = biological target: T2, TWEAK (human, UniProt O43508 94-249, limits assumed); assay: SPR (Biacore), TWEAK amine-coupled on C1 chip, bispecific antibody as analyte, 1:1 Langmuir
T2 construct: The method paragraph says only 'TWEAK'; also called human TWEAK; TNF-related weak inducer of apoptosis
T2 sequence (looked up): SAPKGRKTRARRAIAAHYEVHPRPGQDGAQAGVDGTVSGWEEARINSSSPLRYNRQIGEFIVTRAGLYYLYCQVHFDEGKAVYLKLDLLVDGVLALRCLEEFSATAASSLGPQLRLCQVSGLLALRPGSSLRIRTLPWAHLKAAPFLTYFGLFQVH
Description: Around 100 RU of TWEAK was immobilized on the C1 chip surface at pH 5.0 using an amine coupling kit supplied by the GE Healthcare. The sample and system buffer was PBS-T (10 mM phosphate buffered saline including 0.05% Tween 20) pH 7.4. Association was measured by injection the bispecific antibody in various concentrations in solution for 3 min at a flow of 30 μl/min starting with 50 nM in 1:1 serial dilutions. The dissociation phase was monitored for up to 10 min and triggered by switching from the sample solution to running buffer. The surface was regenerated three times by 30 sec wash with a 3 M MgCl2 solution at a flow rate of 30 μl/min. Bulk refractive index differences were corrected by subtracting the response obtained from a blank-coupled surface. Blank injections are also subtracted (=double referencing). For calculation of KD and other kinetic parameters, the Langmuir 1:1 model was used.
as §2

B1: TweakIL17-0134 (bispecific antibody, human IgG4 S228P, kappa)
light 1: DIVMTQSPLSLPVTPGEPASISCRSSQSLVHSNGDTYFHWYLQKPGQSPQLLIYKVSNRFSGVPDRFSGSGSGTDFTLKISRVEAEDVGVYYCSQTTHAPFTFGQGTKLEIKRTVAAPSVFIFPPSDEKLKSGTASVVCLLNNFYPREAKVQWKVDNALQSGNSQESVTEQDSKDSTYSLSSTLTLSKADYEKHKVYACEVTHQGLSSPVTKSFNRGEC
heavy 1: EVQLVESGGGLVQPGGSLRLSCAASGFSLDSYGVHWVRQATGKGLEWVSVIWSDGTTTYNSALKSRFTISRENAKNSLYLQMNSLRAGDTAVYYCARDTHYRLYYYAMDYWGQGTTVTVSSASTKGPSVFPLAPCSRSTSESTAALGCLVEDYFPEPVTVSWNSGALTSGVHTFPAVLQSSGLYSLSSVVTVPSSSLGTKTYTCNVDHKPSNTKVDKRVESKYGPPCPPCPAPEFEGGPSVFLFPPKPKDTLMISRTPEVTCVVVDVSQEDPEVQFNWYVDGVEVHNAKTKPREEQFNSTYRVVSVLTVLHQDWLNGKEYKCKVSNKGLPSSIEKTISKAKGQPREPQVCTLPPSQEEMTKNQVSLSCAVKGFYPSDIAVEWESNGQPENNYKTTPPVLDSDGSFFLVSRLTVDKSRWQEGNVFSCSVMHEALHNHYTQKSLSLSLGK
light 2: DIQMTQSPSSVSASVGDRVTITCQASQNIYSNLAWYQQKPGKAPKLLIYTASYLASGVPSRFSGSGSGTDYTLTISSLQPEDFATYYCQTAYYNSRPDTVAFGGGTKVEIKSSASTKGPSVFPLAPCSRSTSESTAALGCLVKDYFPEPVTVSWNSGALTSGVHTFPAVLQSSGLYSLSSVVTVPSSSLGTKTYTCNVDHKPSNTKVDKRVESKYG
heavy 2: QVQLVQSGAEVKKPGSSVKVSCKASGFDFSTYYMSWVRQAPGQGLEWMGTVYVRQGTTYYASWLNGRVTITADESTSTAYMELSSLRSEDTAVYYCARGGYNYDDAFVIWGQGTLVTVSSASVAAPSVFIFPPSDEELKSGTASVVCLLNNFYPREAKVQWKVDNALQSGNSQESVTEQDSKDSTYSLSSTLTLSKADYEKHKVYACEVTHQGLSSPVTKSFNRGECPPCPPCPAPEFEGGPSVFLFPPKPKDTLMISRTPEVTCVVVDVSQEDPEVQFNWYVDGVEVHNAKTKPREEQFNSTYRVVSVLTVLHQDWLNGKEYKCKVSNKGLPSSIEKTISKAKGQPREPQVYTLPPCQEEMTKNQVSLWCLVKGFYPSDIAVEWESNGQPENNYKTTPPVLDSDGSFFLYSRLTVDKSRWQEGNVFSCSVMHEALHNHYTQKSLSLSLGK
notes: CrossMAb CH1-CL, knob-into-hole with S354C/Y349C
- Kd (human IL17 [1]): < 0.1 nM
- koff (human IL17 [2]): 0.000208 s⁻¹
- kon (human IL17 [2]): 1.1e+07 M⁻¹ s⁻¹
- Kd (TWEAK): < 0.1 nM
- koff (TWEAK): 3e-05 s⁻¹
- kon (TWEAK): 870000 M⁻¹ s⁻¹
